Our source for the ELISA reading and MFI values is US20230183352A1.

Changes are numbered by the printed parent chain.

B1: QP320 (Fc fusion, not shown: a dimerising Fc or GST)
chain: EVQLLESGGGLVQPGGSLRLSCAASGFTYGTYAMSWVRQAPGKGLEWVSCIDIYGRASYTDPVKGRFTISRDNSKNTLYLQMNSLRAEDTAVYYCAARDFGYCTASWVHEGFSRYWGQGTLVTVSS
B2: QP325 (Fc fusion, not shown: a dimerising Fc or GST)
chain: B1 chain with V37F, W47G, S49A, A57T, R71Q
B3: QP324 (Fc fusion, not shown: a dimerising Fc or GST)
chain: B1 chain with S49A, A57T, R71Q
B4: QP1166 (Fc fusion, not shown: a dimerising Fc or GST)
chain: QVQLVESGGDSVQPGGSLRLSCAASGFTYGTYAMSWFRQAPGKEREGVACIDIYGRTSYTDPVKGRFTISQDNAKNTLYLQMNSLKPEDTAMYYCAARDFGYCTASWVHEGFSRYWGQGTQVTVSS
B5: QP190191 (antibody, human IgG1, V domains shown)
VH: EVKLVESGGGLVKPGGSLKLSCAASGFTFSNYAMSWVRQTPEKRLEWVASIISGGRTYYLDSEKGRFTISRDNARNNLYLQMSSLRSEDTAMYYCTRIYYGNSFDYWGQGTTLTVSS
VL: DIVMTQSPSSQTVTAGEKVTMSCKSSQSLLNSGNQKNYLTWYQQKPGQPPKLLIYWASTRESGVPDRFTGSGSGTDFTLTISNMQAEDLAVYYCQNDYSYPFTFGSGTKLEIK
B6: QP201202 (antibody, human IgG1, V domains shown)
VH: EVQLQQSGPELVKPGASVKMSCKASGYTFTNYFVHWVKQKPGQGLEWIGYINPYNDDTKYNEKFKGKATLTSDKSSSTAYMDLSSLTSEDSAVYYCLSLRFFAYWGQGTLVTVSA
VL: B5 VL with Q11L, P49A, T69I, N83H, M84V, Y93F, F102L, S106A, K109N, I112L
B7: QP192193 (antibody, human IgG1, V domains shown)
VH: QVQLQQSGAELVRPGSSVKISCKASGYAFSSYWMNWVKQRPGQGLEWIGQIYPGNGDTTYNGKFKGQATLTADKSSSTVYMQLSSLTSEDSAVYFCARFVKGNAMDYWGQGTSVTVSS
VL: B5 VL with Q11L, K45N, L52M, T75I, T78S, N83S, M84V, V91L, D97A
B8: QP207208 (antibody, human IgG1, V domains shown)
VH: EVQLQQSGPELVKPGASVKMSCKASGYTFTSYIMHWVKQKPGQGLEWIGYINPYNDGTKYNEKFKGKATLTSDKSSSTVYMELSSLTSEDSAVYCCARLGFTTRNAMDYWGQGTSVTVSS
VL: B5 VL with Q11L, T12S, T14S, S22N, T40A, W56G, N83S, M84V, Y98H
B9: QP199200 (antibody, human IgG1, V domains shown)
VH: DVQLVESGGGLVQPGGSRKLSCAASGFTFSSFGMHWVRQAPEKGLEWVAYISSGSNSIYYVDTVKGRFTISRDNPKNTLFLQMTSLKSEDTAMYYCARNAYYGNSFDYWGQGTTLTVSS
VL: B5 VL with Q11L, D76V, N83S, M84V, Y93F, D97N, S99Y, F102L, S106A, I112L

Claudin 18.1 (CLDN18.1), expressed on CHOS-CLDN18.1 cells, sequence (P56856 whole entry): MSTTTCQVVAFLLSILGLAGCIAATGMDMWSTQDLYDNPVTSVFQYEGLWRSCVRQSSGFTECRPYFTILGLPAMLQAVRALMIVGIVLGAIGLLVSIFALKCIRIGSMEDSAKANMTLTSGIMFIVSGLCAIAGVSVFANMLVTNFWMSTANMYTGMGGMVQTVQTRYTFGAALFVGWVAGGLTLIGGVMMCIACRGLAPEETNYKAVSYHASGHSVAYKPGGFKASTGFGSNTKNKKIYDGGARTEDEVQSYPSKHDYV

For the first assay, the target named is Biotin QP004.3 (biotin-PDL1-FC) (human) (UniProt Q9NZQ7). Put plainly: binding ELISA, antibody coated, biotin-PDL1-FC titrated.
Biotin QP004.3 (biotin-PDL1-FC) (human), sequence (Q9NZQ7 19-238 limits assumed): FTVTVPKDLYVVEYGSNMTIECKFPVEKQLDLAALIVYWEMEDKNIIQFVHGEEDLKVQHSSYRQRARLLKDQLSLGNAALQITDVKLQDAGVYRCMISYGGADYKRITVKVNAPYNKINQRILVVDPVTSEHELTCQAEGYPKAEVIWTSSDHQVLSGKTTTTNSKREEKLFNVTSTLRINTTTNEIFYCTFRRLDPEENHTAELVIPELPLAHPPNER
With B1, the ELISA reading at 0.0007 µg/ml biotin-PDL1-FC was 0.125, the ELISA reading at 0.0021 µg/ml biotin-PDL1-FC was 0.114, the ELISA reading at 0.0062 µg/ml biotin-PDL1-FC stood at 0.108 and the ELISA reading at 0.0185 µg/ml biotin-PDL1-FC was 0.0792. Also, the ELISA reading at 0.0556 µg/ml biotin-PDL1-FC was 0.0843, the ELISA reading at 0.1667 µg/ml biotin-PDL1-FC stood at 0.0957, the ELISA reading at 0.5000 µg/ml biotin-PDL1-FC stood at 0.142 and the ELISA reading at 2.0000 µg/ml biotin-PDL1-FC is 0.23.
On to B2, for which the ELISA reading at 0.0007 µg/ml biotin-PDL1-FC turned out to be 0.182, the ELISA reading at 0.0021 µg/ml biotin-PDL1-FC amounted to 0.598, the ELISA reading at 0.0062 µg/ml biotin-PDL1-FC was determined as 1.32 and the ELISA reading at 0.0185 µg/ml biotin-PDL1-FC is 2.12. In addition, the ELISA reading at 0.0556 µg/ml biotin-PDL1-FC was 2.78, the ELISA reading at 0.1667 µg/ml biotin-PDL1-FC was determined as 3.11, the ELISA reading at 0.5000 µg/ml biotin-PDL1-FC was determined as 3.21 and the ELISA reading at 2.0000 µg/ml biotin-PDL1-FC was found to be 3.42.
As for B3, the ELISA reading at 0.0007 µg/ml biotin-PDL1-FC was determined as 0.192, the ELISA reading at 0.0021 µg/ml biotin-PDL1-FC is 0.141, the ELISA reading at 0.0062 µg/ml biotin-PDL1-FC is 0.15 and the ELISA reading at 0.0185 µg/ml biotin-PDL1-FC is 0.107. Moreover, the ELISA reading at 0.0556 µg/ml biotin-PDL1-FC came to 0.0882, the ELISA reading at 0.1667 µg/ml biotin-PDL1-FC was determined as 0.129, the ELISA reading at 0.5000 µg/ml biotin-PDL1-FC was found to be 0.201 and the ELISA reading at 2.0000 µg/ml biotin-PDL1-FC turned out to be 0.413.
With B4, the ELISA reading at 0.0007 µg/ml biotin-PDL1-FC was found to be 0.217, the ELISA reading at 0.0021 µg/ml biotin-PDL1-FC was 0.56, the ELISA reading at 0.0062 µg/ml biotin-PDL1-FC was found to be 1.55 and the ELISA reading at 0.0185 µg/ml biotin-PDL1-FC was found to be 2.57. Further, the ELISA reading at 0.0556 µg/ml biotin-PDL1-FC came out at 3.23, the ELISA reading at 0.1667 µg/ml biotin-PDL1-FC is 3.13, the ELISA reading at 0.5000 µg/ml biotin-PDL1-FC amounted to 3.28 and the ELISA reading at 2.0000 µg/ml biotin-PDL1-FC came to 3.41.

A further assay addresses Claudin 18.1 (CLDN18.1), expressed on CHOS-CLDN18.1 cells (UniProt P56856). Put plainly: FACS, CHOS-CLDN18.1 cells, 10 µg/ml. (In flow cytometry, cells or beads pass a laser one at a time.)
The molecule B5 registered an MFI of 1060.
As to B6, the MFI was determined as 1150.
Molecule B7 showed an MFI of 1030.
Still for that read-out and setting: the same measure for B8: 1320; for B9: 918.

A further assay concerns the target Biotin QP004.3 (biotin-PDL1-FC) (human) (UniProt Q9NZQ7). Kind of assay: blocking ELISA, PD1-FC coated, biotin-PDL1-FC plus antibody; competitor PD1-FC. In general terms: In an ELISA, binding on a coated surface is turned into a signal by an enzyme label.
On to B1, for which the ELISA reading at 0.0457 nM antibody was found to be 1.21, the ELISA reading at 0.1372 nM antibody is 1.3, the ELISA reading at 0.4115 nM antibody stood at 1.47 and the ELISA reading at 1.2346 nM antibody is 1.08. Also, the ELISA reading at 3.7037 nM antibody stood at 1.11, the ELISA reading at 11.1111 nM antibody was 1.12, the ELISA reading at 33.3333 nM antibody was 1.02 and the ELISA reading at 100.0000 nM antibody came out at 0.793.
Consider B2, for which the ELISA reading at 0.0457 nM antibody worked out at 1.08, the ELISA reading at 0.1372 nM antibody is 1.02, the ELISA reading at 0.4115 nM antibody was determined as 0.975 and the ELISA reading at 1.2346 nM antibody was 0.995. Besides, the ELISA reading at 3.7037 nM antibody worked out at 1.03, the ELISA reading at 11.1111 nM antibody is 0.513, the ELISA reading at 33.3333 nM antibody was 0.238 and the ELISA reading at 100.0000 nM antibody stood at 0.156.
On to B3, for which the ELISA reading at 0.0457 nM antibody stood at 1.29, the ELISA reading at 0.1372 nM antibody was found to be 1.06, the ELISA reading at 0.4115 nM antibody was 0.901 and the ELISA reading at 1.2346 nM antibody is 0.879. Further, the ELISA reading at 3.7037 nM antibody was found to be 0.895, the ELISA reading at 11.1111 nM antibody was 0.753, the ELISA reading at 33.3333 nM antibody was determined as 0.737 and the ELISA reading at 100.0000 nM antibody was determined as 0.661.
On to B4, for which the ELISA reading at 0.0457 nM antibody stood at 1.16, the ELISA reading at 0.1372 nM antibody was 1.24, the ELISA reading at 0.4115 nM antibody worked out at 1.06 and the ELISA reading at 1.2346 nM antibody was found to be 1.13. Besides, the ELISA reading at 3.7037 nM antibody is 1.06, the ELISA reading at 11.1111 nM antibody worked out at 0.508, the ELISA reading at 33.3333 nM antibody came to 0.239 and the ELISA reading at 100.0000 nM antibody came out at 0.167.
